For test [1], the target named is T1, Her2-eGFP (hsHER2_ecd_tm-eGFP) (human (printed as hs)).
T1 construct: Her2 ectodomain and transmembrane region fused to eGFP, expressed on K562 cells by lentiviral transduction; also called K562/Her2
In words: flow cytometry on mixed K562 cells expressing Her2-eGFP, EGFR-iRFP, both or neither; DARPin pre-complexed with Bcl2-AF594, 3-fold dilutions from 300 nM to 0.4 nM. How it is done:
(§1) FIG. 21. DARPin binder affinity measured by flow cytometry. Anti-Her2 or anti-EGFR DARPins with N-terminal fusions to Bim were pre-complexed with Bcl2-AF594 and serially diluted 3-fold from 300 nM down to 0.4 nM. This dilution series was used to label a mixed population of K562 cells expressing Her2-eGFP, EGFR-iRFP, both, or neither for one hour at room temperature in a 50 μl incubation volume. The cells were then washed in PBS supplemented with 0.1% bovine serum albumin and analyzed on an LSRII flow cytometer.
In general terms: In flow cytometry, cells or beads pass a laser one at a time.

Test [2] concerns the target T2, EGFR-iRFP (hsEGFR_ecd_tm-iRFP) (human (printed as hs)).
T2 construct: EGFR ectodomain and transmembrane region fused to iRFP, expressed on K562 cells by lentiviral transduction; also called K562/EGFR
The description is as above. How it is done: as §1

We go through two molecules from US20220218752A1 (University of Washington, published 2022).

T2 sequence (chain, as listed by the source limits assumed): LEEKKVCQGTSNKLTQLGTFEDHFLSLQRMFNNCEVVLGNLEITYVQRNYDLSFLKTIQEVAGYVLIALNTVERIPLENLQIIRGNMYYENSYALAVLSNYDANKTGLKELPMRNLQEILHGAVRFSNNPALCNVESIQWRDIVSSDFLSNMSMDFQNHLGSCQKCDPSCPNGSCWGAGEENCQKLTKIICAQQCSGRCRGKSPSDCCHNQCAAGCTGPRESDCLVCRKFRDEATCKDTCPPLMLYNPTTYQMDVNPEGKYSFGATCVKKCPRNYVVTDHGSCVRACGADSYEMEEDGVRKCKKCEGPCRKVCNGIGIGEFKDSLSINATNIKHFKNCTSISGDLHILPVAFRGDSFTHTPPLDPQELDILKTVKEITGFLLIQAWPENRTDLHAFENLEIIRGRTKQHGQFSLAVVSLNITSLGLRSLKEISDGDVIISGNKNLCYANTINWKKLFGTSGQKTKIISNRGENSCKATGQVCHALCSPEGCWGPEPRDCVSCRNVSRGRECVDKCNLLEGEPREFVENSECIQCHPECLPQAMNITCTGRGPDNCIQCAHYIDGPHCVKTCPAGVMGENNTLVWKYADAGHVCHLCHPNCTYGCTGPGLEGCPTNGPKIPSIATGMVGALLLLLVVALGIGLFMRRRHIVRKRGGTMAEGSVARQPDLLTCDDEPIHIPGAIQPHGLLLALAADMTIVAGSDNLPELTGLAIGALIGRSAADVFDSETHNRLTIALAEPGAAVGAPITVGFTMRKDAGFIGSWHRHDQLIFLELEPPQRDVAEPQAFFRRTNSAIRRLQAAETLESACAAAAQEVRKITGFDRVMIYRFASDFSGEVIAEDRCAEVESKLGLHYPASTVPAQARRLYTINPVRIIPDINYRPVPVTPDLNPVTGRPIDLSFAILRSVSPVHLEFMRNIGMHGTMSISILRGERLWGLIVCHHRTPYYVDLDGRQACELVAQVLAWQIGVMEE

B1: Bim_Her2 (Her2 DARPin tagged with N-terminal Bim peptide) (designed binder)
chain: MGSHHHHHHGSGSENLYFQGSTDEIWIAQELRRIGDEFNAYYASGSGDLGKKLLEAARAGQDDEVRILMANGADVNAKDEYGLTPLYLATAHGHLEIVEVLLKNGADVNAVDAIGFTPLHLAAFIGHLEIAEVLLKHGADVNAQDKFGKTAFDISIGNGNEDLAEILQKLN
notes: also called anti-Her2 DARPin with N-terminal fusion to Bim; Bim-DARPin
As for B1, the Kd (commonly the concentration at which binding is half-saturated) in test [1] was around 10 nM.

B2: Bim_EGFR (EGFR DARPin tagged with N-terminal Bim peptide) (designed binder)
chain: MGSHHHHHHGSGSENLYFQGSTDEIWIAQELRRIGDEFNAYYASGSGDLGKKLLEAARAGQDDEVRILMANGADVNADDTWGWTPLHLAAYQGHLEIVEVLLKNGADVNAYDYIGWTPLHLAADGHLEIVEVLLKNGADVNASDYIGDTPLHLAAHNGHLEIVEVLLKHGADVNAQDKFGKTAFDISIDNGNEDLAEILQKLN
notes: also called anti-EGFR DARPin with N-terminal fusion to Bim; Bim-DARPin
For B2, in test [2], the Kd is around 10 nM.
